For assay [1], the target named is T1, secreted form of IL1RAP (recombinant) (human, UniProt Q9NPH3 21-350).
T1 construct: also called recombinant form of the secreted IL1RAP; soluble IL1RAP
T1 sequence: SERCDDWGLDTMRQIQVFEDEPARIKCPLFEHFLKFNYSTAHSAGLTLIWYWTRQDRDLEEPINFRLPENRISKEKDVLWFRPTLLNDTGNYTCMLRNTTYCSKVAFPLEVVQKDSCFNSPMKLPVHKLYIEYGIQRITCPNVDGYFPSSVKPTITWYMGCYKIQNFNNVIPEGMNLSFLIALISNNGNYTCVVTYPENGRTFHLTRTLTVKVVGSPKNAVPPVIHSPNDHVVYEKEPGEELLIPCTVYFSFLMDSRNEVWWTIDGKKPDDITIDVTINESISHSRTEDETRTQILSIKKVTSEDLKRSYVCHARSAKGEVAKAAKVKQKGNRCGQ
The assay can be described thus: ELISA, antigen coated at 2 ug/ml. The method, then:
(§1) An ELISA was performed to further determine the specificity of monoclonal antibodies 4G9, 12F1, and 42E1. Wells of 96-well plate were coated with the secreted form of IL1RAP, ECD form of IL1RAP, ACPep-1 conjugated to KLH, or unconjugated KLH at 2 ug/ml overnight at 2-8° C. The coated wells were washed with PBS with 0.05% Tween-20, and then blocked with 1% BSA. Purified test antibodies 4G9, 12F1 and 42E1 were diluted to 20 ug/ml, added to wells coated with various proteins, and incubated at RT for 1 hr. Antibody 12G6, which binds to both the ECD and the secreted form of IL1RAP, was added as a control. Mouse IgG1 was also added as an isotype control. After incubation and PBS washes, donkey anti-mouse-HRP polyclonal antibodies were added. Color was developed with TMB substrate after incubation and PBS washes. The reaction was quenched with acid and the plate was read at 450 nm.
In general terms: In an ELISA, binding on a coated surface is turned into a signal by an enzyme label.

The target of assay [2] is T2, ACPep-1 conjugated to KLH (human, also: conjugated to KLH, site and chemistry not given here).
T2 construct: Peptide-carrier conjugate; also called ACPep-1-KLH; ACPep-1 conjugated KLH; not shown: Keyhole limpet hemocyanin (KLH) carrier
T2 peptide: VKQKVPAPRYTVELAC
Description: ELISA, antigen coated at 2 ug/ml, antibody at 20 ug/ml. The method, then: as §1

The target of assay [3] is T3, 12-mer peptide VPAPRYTVELAC (human).
T3 construct: also called unconjugated peptide
T3 peptide: VPAPRYTVELAC
Description: ELISA, peptide adsorbed on the plate. The method, then:
Peptide was conjugated to Keyhole Limpet Hemocyanin (KLH) using methods known in the art. Unconjugated peptide, KLH-peptide, and KLH were then adsorbed onto different wells of a MAXIBIND 96-well ELISA plate, which was then blocked with 1% BSA. Anti-IL1RAP antibody 1F5 was then added to the wells followed by an incubation and a wash. After the wash, donkey-anti-mouse-HRP was added to the wells at a 1:50,000 dilution followed by an incubation and a wash. Color was developed with TMB substrate. The reaction was quenched with acid and the plate was read at 450 nm.

Assay [4] deals with T4, soluble (secreted) form of IL1RAP in normal human serum (human, UniProt Q9NPH3 21-350).
T4 construct: Natural protein captured from human serum; also called IL1RAP from NHS; natural secreted form of IL1RAP in human serum
T4 sequence: T1 sequence
The assay can be described thus: sandwich ELISA with normal human serum.

For assay [5], the target named is T5, peptide AC Pep-1 (human).
T5 peptide: VKQKVPAPRYTVELAC
The assay can be described thus: ELISA of hybridoma supernatant on peptide AC Pep-1.

For assay [6], the target named is T6, human interleukin 1 receptor accessory protein, membrane-bound (receptor) form on cells (human, UniProt Q9NPH3 21-570).
T6 construct: also called IL1RAP; receptor IL1RAP
T6 sequence: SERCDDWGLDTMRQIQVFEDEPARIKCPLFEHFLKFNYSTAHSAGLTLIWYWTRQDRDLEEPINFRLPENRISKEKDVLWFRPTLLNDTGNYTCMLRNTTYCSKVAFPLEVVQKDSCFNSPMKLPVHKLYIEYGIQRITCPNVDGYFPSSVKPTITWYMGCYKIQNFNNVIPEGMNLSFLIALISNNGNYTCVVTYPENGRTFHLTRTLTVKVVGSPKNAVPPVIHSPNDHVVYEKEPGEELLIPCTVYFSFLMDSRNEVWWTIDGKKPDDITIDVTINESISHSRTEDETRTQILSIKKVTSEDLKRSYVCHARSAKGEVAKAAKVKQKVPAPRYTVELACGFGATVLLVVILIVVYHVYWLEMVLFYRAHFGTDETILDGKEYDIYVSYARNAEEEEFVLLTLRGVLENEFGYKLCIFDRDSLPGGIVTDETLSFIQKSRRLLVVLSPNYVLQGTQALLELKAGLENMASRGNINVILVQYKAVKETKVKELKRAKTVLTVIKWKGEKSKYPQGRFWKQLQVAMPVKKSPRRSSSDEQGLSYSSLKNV
The assay can be described thus: flow cytometry on BMMC or PBMC of AML patients, 1F5 at 2 µg/mL. The method, then: Bone Marrow-Derived […] (BMMC) or Peripheral Blood Mononuclear Cells (PBMC) were isolated by Ficoll separation (GE Healthcare) from bone marrow aspirate or whole blood respectively of AML patients. Cells were resuspended in staining solution (HBSS, 1% BSA, 1 mM EDTA) to 2×10⁶ cells/mL and blocked with mouse and rat IgG prior to staining. Unconjugated IgG2a or 1F5 antibodies were added to each tube to a final concentration of 2 μg/mL. 50 μL of the cell solution was added to each tube and incubated on ice for 30 min (each stage of incubation was 30 min). Cells were washed with staining solution and resuspended in 100 μL of staining solution with a […] concentration of anti-mouse-PE secondary. Cells were washed with staining solution and resuspended in 100 μL of staining solution with 5 μL each of CD34-FITC, CD45-APC and CD38-APC (BD). Cells were washed with staining solution and resuspended in 200 μL. Cells were immediately applied to flow cytometry for analysis.
(In flow cytometry, cells or beads pass a laser one at a time.)

In assay [7] the target is T7, extracellular domain (ECD) form of IL1RAP (human, UniProt Q9NPH3 21-367).
T7 construct: also called ECD of IL1RAP; ECD IL1RAP
T7 sequence: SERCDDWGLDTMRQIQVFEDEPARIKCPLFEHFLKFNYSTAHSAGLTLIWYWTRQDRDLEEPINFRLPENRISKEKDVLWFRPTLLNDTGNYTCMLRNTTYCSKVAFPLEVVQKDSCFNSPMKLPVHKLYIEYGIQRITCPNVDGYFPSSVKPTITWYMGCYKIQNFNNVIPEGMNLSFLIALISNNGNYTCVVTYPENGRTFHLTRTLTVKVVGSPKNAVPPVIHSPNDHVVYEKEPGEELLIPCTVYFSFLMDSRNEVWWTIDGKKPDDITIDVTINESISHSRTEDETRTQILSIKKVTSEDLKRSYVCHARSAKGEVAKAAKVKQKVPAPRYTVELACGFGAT
The assay can be described thus: ELISA, IL1RAP captured by goat anti-human IL1RAP polyclonal, 1F5 at 1 µg/ml. The procedure:
Wells of a 96-well ELISA plate were coated with goat-anti-human IL1RAP polyclonal at 0.5 μg/ml and incubated overnight at 2-8° C. The coated wells were washed with PBS with 0.05% Tween-20, then blocked with 1% BSA. IL1RAP was added into the wells at 0.5, 1, or 2 μg/ml followed by an incubation and a 3×PBS wash. After the 3×PBS wash, antibody 1F5 was added to the wells at 1 μg/ml followed by an incubation and a 3×PBS wash. After the 3×PBS wash, donkey-anti-mouse-HRP was added to the wells at a 1:50,000 dilution followed by an incubation and a 3×PBS wash. Color was developed with TMB substrate. The reaction was quenched with acid and the plate was read at 450 nm.

The target of assay [8] is T1, secreted form of IL1RAP (recombinant). The assay can be described thus: ELISA, antigen captured by goat anti-human IL1RAP polyclonal, serially diluted antibody. The source says:
(§2) The binding specificity of purified 4B6 was confirmed by ELISA assays described below. Wells of 96-well plate were coated with goat-anti-human IL1RAP polyclonal antibodies to capture various forms of IL1RAP. Forms of IL1RAP captured were (a) ECD form of IL1RAP, (b) the secreted form IL1RAP, and (c) human serum containing the secreted form of IL1RAP. Each captured form was then reacted with serially diluted tested antibody 4B6, control antibody 12G6, or a mouse IgG1 isotype control antibody. After incubation and washing, wells were reacted with secondary donkey-anti-mouse-HRP polyclonal antibodies. Color was developed with TMB substrate after incubation and PBS washes.

The target in assay [9] is T4, soluble (secreted) form of IL1RAP in …. The assay can be described thus: ELISA, antigen captured from human serum by goat anti-human IL1RAP polyclonal, serially diluted antibody.
Source text: as §2

No end group written: not given here.

B1: monoclonal antibody 4G9 (antibody, V domains shown)
VH: QVQLQQSGTELVRPGASVKLSCKASGYTFTDYEMHWVKQTPVHGLEWIGAIDPGTGGIAYNQKFKGKATLTADKSSSTAYMELRSLTSEDSAVYYCTLYDYDLAYWGQGTLVTVSA
VL: DVLMTQTPLSLPVSLGDQASISCRSSQSIVHSNGNTYLEWFLQKPGQSPKLLIYTVSNRFSGVPDRFSGSGSGTDFTLKISRVEAEDLGVYYCFQGSHVPPTFGGGTKLEIK
On to B1, for which the binding result was “no binding (tested: 20 ug/ml)” in assay [1] and “binds” in assay [2].

B2: anti-receptor IL1RAP antibody clone 1F5 (antibody, V domains shown)
VH: EVKLVESGGGLVKPGASLKLSCAASGFTFSNYGMSWVRQTSDKRLEWVASISSGGGSTYYPDNVKGRFTISRENAKNTLYLQMSSLKSEDTALYYCARVLPGRWAMDYWGQGSSVTVSS
VL: DVVMTQTPLSLPVSLGDQASISCRSSQSLVHINGNTYLHWYLQKPGQSPKLLIYKVSNRFSGVPDRFSGSGSGTDFTLKISRVEAEDLGVYFCSQSTHVPWTFGGGTKLEIK
notes: Mouse monoclonal antibody from a hybridoma (A/J mice immunised with AC Pep-1-KLH); IgG2a was used as its control in flow cytometry; Hybridoma supernatants were used in some assays; also called anti-IL1RAP antibody 1F5; 1F5 supernatants
On to B2, for which the binding result in [3] was “binds”; in assay [4], “no binding”; in [5], “binds”; in assay [6] it was “binds”; in assay [7], “binds”.

B3: monoclonal antibody 4B6 (antibody, V domains shown)
VH: EVKLVESGGGLVKPGGSLKLSCAASGFTFRTYAMSWVRQTPEKRLEWVASISSRGRIYYPDSVKGRFTISRDNARNILYLQMSSLRSEDTAMYYCARDGDYGSSYDYWGQGTTLTVSS
VL: DIQMTQSPSSLSASLGERVSLTCRASQDIGSSLNWLQQEPDGTIKRLIYATSSLDSGVPKRFSGSRSGSDYSLTISSLESEDFVDYYCLQYASSPWTFGGGTKLEIK
For the molecule B3, the binding result in assay [8] and in assay [9] was “no binding” in each case.
